Source: paper PMC4957052 (The Journal of Biological Chemistry, 2016)

Molecular target: T1, M. musculus αT-catenin (wild type, full length) (M. musculus, UniProt Q65CL1 1-895)
T1 construct: Cloned into pGEX-TEV; cleaved from GST with tobacco etch virus protease; also called αT (testes)-catenin; WT αT-catenin; source: E. coli BL21(DE3), purified (glutathione-agarose, TEV cleavage, Mono Q, S200 gel filtration)
T1 sequence (looked up): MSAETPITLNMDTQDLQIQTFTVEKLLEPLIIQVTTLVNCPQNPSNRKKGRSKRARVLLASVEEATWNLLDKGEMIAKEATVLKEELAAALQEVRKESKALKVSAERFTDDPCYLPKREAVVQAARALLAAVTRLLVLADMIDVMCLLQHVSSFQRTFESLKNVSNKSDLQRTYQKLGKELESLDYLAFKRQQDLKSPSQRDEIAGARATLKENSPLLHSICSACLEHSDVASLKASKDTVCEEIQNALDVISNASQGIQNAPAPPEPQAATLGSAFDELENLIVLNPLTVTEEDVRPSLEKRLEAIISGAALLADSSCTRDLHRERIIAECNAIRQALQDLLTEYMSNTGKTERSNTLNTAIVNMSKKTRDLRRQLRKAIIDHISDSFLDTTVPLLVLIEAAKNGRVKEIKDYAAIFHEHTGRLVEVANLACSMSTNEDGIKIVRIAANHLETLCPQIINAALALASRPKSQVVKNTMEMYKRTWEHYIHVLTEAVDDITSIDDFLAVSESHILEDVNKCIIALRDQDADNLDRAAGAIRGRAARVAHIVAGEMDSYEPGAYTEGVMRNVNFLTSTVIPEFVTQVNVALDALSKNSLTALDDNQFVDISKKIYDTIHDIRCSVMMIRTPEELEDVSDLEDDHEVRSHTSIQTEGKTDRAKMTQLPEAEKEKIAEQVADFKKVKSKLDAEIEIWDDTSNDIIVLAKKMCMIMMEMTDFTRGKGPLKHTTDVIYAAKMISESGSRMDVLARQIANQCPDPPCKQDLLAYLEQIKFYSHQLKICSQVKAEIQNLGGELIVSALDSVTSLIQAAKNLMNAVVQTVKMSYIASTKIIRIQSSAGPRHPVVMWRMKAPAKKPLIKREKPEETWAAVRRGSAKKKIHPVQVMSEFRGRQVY
Assay: pull-down; 1-15 μg αT-catenin or V94D added to 15 μg GST-β-catenin on glutathione-agarose in 20 mM Tris pH 8, 150 mM NaCl, 5 mM DTT; >2 h at 4 °C (legend: 1 h at room temperature); five washes in PBS + 0.05% Tween 20, 5 mM DTT; Coomassie
Conditions: both partners purified

binding result: binds
B1: GST-tagged full-length β-catenin (natural protein, mouse, UniProt Q02248 1-781, looked up)
chain: MATQADLMELDMAMEPDRKAAVSHWQQQSYLDSGIHSGATTTAPSLSGKGNPEEEDVDTSQVLYEWEQGFSQSFTQEQVADIDGQYAMTRAQRVRAAMFPETLDEGMQIPSTQFDAAHPTNVQRLAEPSQMLKHAVVNLINYQDDAELATRAIPELTKLLNDEDQVVVNKAAVMVHQLSKKEASRHAIMRSPQMVSAIVRTMQNTNDVETARCTAGTLHNLSHHREGLLAIFKSGGIPALVKMLGSPVDSVLFYAITTLHNLLLHQEGAKMAVRLAGGLQKMVALLNKTNVKFLAITTDCLQILAYGNQESKLIILASGGPQALVNIMRTYTYEKLLWTTSRVLKVLSVCSSNKPAIVEAGGMQALGLHLTDPSQRLVQNCLWTLRNLSDAATKQEGMEGLLGTLVQLLGSDDINVVTCAAGILSNLTCNNYKNKMMVCQVGGIEALVRTVLRAGDREDITEPAICALRHLTSRHQEAEMAQNAVRLHYGLPVVVKLLHPPSHWPLIKATVGLIRNLALCPANHAPLREQGAIPRLVQLLVRAHQDTQRRTSMGGTQQQFVEGVRMEEIVEGCTGALHILARDVHNRIVIRGLNTIPLFVQLLYSPIENIQRVAAGVLCELAQDKEAAEAIEAEGATAPLTELLHSRNEGVATYAAAVLFRMSEDKPQDYKKRLSVELTSSLFRTEPMAWNETADLGLDIGAQGEALGYRQDDPSYRSFHSGGYGQDALGMDPMMEHEMGGHHPGADYPVDGLPDLGHAQDLMDGLPPGDSNQLAWFDTDL
notes: β-catenin, full length; also called GST-β-catenin; GST-tagged β-catenin
